This is an account of results in PMC11890025.

The subject of the data set is SaAREB6-His (Santalum album). Nature of the data set: MST. As to conditions: MST: 20 nM labelled SaAREB6, 150 mM NaCl, 20 mM Tris-HCl pH 8.0, 25 C; EMSA: LightShift Chemiluminescent kit, buffer not stated. Background: A gel shift assay detects complexes by their altered migration in electrophoresis.

The term Kd denotes the concentration at which binding is half-saturated. For the substance SaCYP736A167 promoter R1 (MST), the Kd was found to be 4.81 µM.

With SaCYP736A167 promoter R2 (MST), the Kd is 24.8 µM.
